Experimental data published in paper PMC7769003.

Target: Recombinant VEEV p62-E1 protein (TrD strain) (Venezuelan equine encephalitis virus (TrD strain))
Assay: SPR

How did the Kd turn out when “HRV-cleaved monovalent Ldlrad3-D1 (from UniProt A2AR95 18-70) (domain or fragment)” was run?
Its Kd is 209 nM.
